B1: RSPO1-CD4TM (ligand)
chain: SRGIKGKRQRRISAEGSQACAKGCELCSEVNGCLKCSPKLFILLERNDIRQVGVCLPSCPPGYFDARNPDMNKCIKCKIEHCEACFSHNFCTKCKEGLYLHKGRCYPACPEGSSAANGTMECSSPAQCEMSEWSPWGPCSKKQQLCGFRRGSEERTRRVLHAPVGDHAACSDTKETRRCTVRRVPCPEGQKRRKGGQGRRENANRNLARKESKEAGAGSRRRKGQQQQQQQGTVGPLTSAGPAMALIVLGGVAGLLLFIGLGIFF
notes: domain: transmembrane domain; also called cell-surface RSPO1; RSPO1 transfected cells

Assays:
RSPO1-CD4TM = biological target: B1; assay: FACS, Fc fusion on HEK 293 cells with RSPO1-CD4TM
Experimental: (§1) FIG. 7. RSPO1 Activates Beta-Catenin Signaling via Binding to LGR5. A) HEK 293 cells transiently transfected with RSPO1-CD4TM and GFP were incubated with LGR5-Fc, LRP6FL-Fc, LRP6E1-2-Fc, or FZD1-10-Fc as indicated. […] B) HEK 293 cells transiently transfected with […] and GFP were incubated in the presence of heparin with (in duplicate) RSPO1-Fc (top), FZD8-Fc (middle), or a FLAG antibody as a positive control (bottom). […] HEK 293 cells transiently transfected with FLAG-LGR5-CD4TM and GFP were incubated in the presence of heparin with RSPO1-Fc, RSPO2-Fc, RSPO3-Fc, RSPO4-Fc, FZD8-Fc, or a FLAG antibody as a positive control as indicated.
(§2) To determine the mechanism by which RSPO1 activates beta-catenin signaling, FACS analysis was used to assess binding between RSPO1 and LGR5. In certain embodiments, binding between soluble LGR5 and cell-surface RSPO1 was determined. A cell-surface RSPO1 protein was generated by ligating full-length human RSPO1 to the transmembrane domain of CD4 using standard recombinant DNA techniques (RSPO1-CD4TM). HEK 293 cells were transiently transfected RSPO1-CD4TM and GFP. After 48 hours, cells were suspended in ice cold PBS containing 2% FCS and then incubated on ice in the presence of LGR5-Fc, LRP6-ECD-Fc (containing the extracellular domain of human LRP6 fused to an Fc domain), LRP6E1-2-Fc (containing amino acids 1-629 of human LRP6 fused to an Fc domain), or various FZD-Fc constructs, including FZD1-10. […] Only a weak interaction between RSPO1 and the WNT co-receptor LRP6 was detected.

FZD7-Fc = FZD7-Fc (UniProt O75084 33-170); assay: FACS, Fc fusion on HEK 293 cells with RSPO1-CD4TM
Experimental: as §1, §2

FZD1-Fc = biological target: T1, FZD1-Fc (UniProt Q9UP38 87-237); assay: FACS, Fc fusion on HEK 293 cells with RSPO1-CD4TM
T1 construct: also called FZD1-10-Fc; FZD-Fc constructs; not shown: Fc
Experimental: as §1, §2

FZD2-Fc = FZD2-Fc (UniProt Q14332 24-159); assay: FACS, Fc fusion on HEK 293 cells with RSPO1-CD4TM
Experimental: as §1, §2

FLAG-LGR5-CD4TM = biological target: T2, FLAG-LGR5-CD4TM (human, UniProt P01730 397-418, limits assumed); assay: FACS, Fc fusion on HEK 293 cells with FLAG-LGR5-CD4TM, with heparin
T2 construct: domain: transmembrane domain; also called cell-surface LGR5; LGR5 transfected cells; not shown: N-terminal FLAG tag
Experimental: In certain embodiments, binding between soluble RSPO1 and cell-surface LGR5 was determined. A variant cell-surface LGR5 protein was generated by ligating amino acids 22-564 of LGR5 to an N-terminal FLAG tag and to the transmembrane domain of CD4 using standard recombinant DNA techniques (FLAG-LGR5-CD4TM). HEK 293 cells were transiently transfected with FLAG-LGR5-CD4TM and GFP. After 48 hours, cells were suspended in ice cold PBS containing 2% FCS and heparin and then incubated on ice in the presence of RSPO1-Fc, FZD8-Fc, or a FLAG antibody as a positive control.

| Binder | binding result (RSPO1-CD4TM) | also measured |
| --- | --- | --- |
| FZD9-Fc (Fc fusion, UniProt O00144 23-159, looked up, also called FZD1-10-Fc; FZD-Fc constructs; not shown: Fc) LEIGRFDPERGRGAAPCQAVEIPMCRGIGYNLTRMPNLLGHTSQGEAAAELAEFAPLVQYGCHSHLRFFLCSLYAPMCTDQVSTPIPACRPMCEQARLRCAPIMEQFNFGWPDSLDCARLPTRNDPHALCMEAPENA | no binding |  |
| FZD5-Fc (Fc fusion, UniProt Q13467 27-157, looked up, also called FZD1-10-Fc; FZD-Fc constructs; not shown: Fc) ASKAPVCQEITVPMCRGIGYNLTHMPNQFNHDTQDEAGLEVHQFWPLVEIQCSPDLRFFLCSMYTPICLPDYHKPLPPCRSVCERAKAGCSPLMRQYGFAWPERMSCDRLPVLGRDAEVLCMDYNRSEATT | no binding |  |
| B1 |  | binding result (FZD7-Fc): no binding; binding result (FZD1-Fc): no binding; binding result (FZD2-Fc): no binding |
| FZD10-Fc (Fc fusion, UniProt Q9ULW2 21-154, looked up, also called soluble FZD10; FZD1-10-Fc; not shown: Fc) ISSMDMERPGDGKCQPIEIPMCKDIGYNMTRMPNLMGHENQREAAIQLHEFAPLVEYGCHGHLRFFLCSLYAPMCTEQVSTPIPACRVMCEQARLKCSPIMEQFNFKWPDSLDCRKLPNKNDPNYLCMEAPNNG | no binding |  |
| FZD8-Fc (Fc fusion, UniProt Q9H461 28-158, looked up, also called soluble FZD8; FZD1-10-Fc; not shown: Fc) ASAKELACQEITVPLCKGIGYNYTYMPNQFNHDTQDEAGLEVHQFWPLVEIQCSPDLKFFLCSMYTPICLEDYKKPLPPCRSVCERAKAGCAPLMRQYGFAWPDRMRCDRLPEQGNPDTLCMDYNRTDLTT | no binding | binding result (FLAG-LGR5-CD4TM): no binding |
| FZD3-Fc (Fc fusion, UniProt Q9NPG1 23-143, looked up, also called FZD1-10-Fc; FZD-Fc constructs; not shown: Fc) HSLFSCEPITLRMCQDLPYNTTFMPNLLNHYDQQTAALAMEPFHPMVNLDCSRDFRPFLCALYAPICMEYGRVTLPCRRLCQRAYSECSKLMEMFGVPWPEDMECSRFPDCDEPYPRLVDL | no binding |  |
| FZD4-Fc (Fc fusion, UniProt Q9ULV1 40-170, looked up, also called FZD1-10-Fc; FZD-Fc constructs; not shown: Fc) EEERRCDPIRISMCQNLGYNVTKMPNLVGHELQTDAELQLTTFTPLIQYGCSSQLQFFLCSVYVPMCTEKINIPIGPCGGMCLSVKRRCEPVLKEFGFAWPESLNCSKFPPQNDHNHMCMEGPGDEEVPLP | no binding |  |
| FZD6-Fc (Fc fusion, UniProt O60353 19-146, looked up, also called FZD1-10-Fc; FZD-Fc constructs; not shown: Fc) HSLFTCEPITVPRCMKMAYNMTFFPNLMGHYDQSIAAVEMEHFLPLANLECSPNIETFLCKAFVPTCIEQIHVVPPCRKLCEKVYSDCKKLIDTFGIRWPEELECDRLQYCDETVPVTFDPHTEFLGP | no binding |  |
